The target of one assay is T1, TagRFP-XWnt8 (Xenopus laevis, UniProt P28026 23-358).
T1 construct: Wnt8 (XWnt8), Xenopus laevis, secreted fusion with TagRFP; also called TagRFP-Wnt8
T1 sequence (looked up): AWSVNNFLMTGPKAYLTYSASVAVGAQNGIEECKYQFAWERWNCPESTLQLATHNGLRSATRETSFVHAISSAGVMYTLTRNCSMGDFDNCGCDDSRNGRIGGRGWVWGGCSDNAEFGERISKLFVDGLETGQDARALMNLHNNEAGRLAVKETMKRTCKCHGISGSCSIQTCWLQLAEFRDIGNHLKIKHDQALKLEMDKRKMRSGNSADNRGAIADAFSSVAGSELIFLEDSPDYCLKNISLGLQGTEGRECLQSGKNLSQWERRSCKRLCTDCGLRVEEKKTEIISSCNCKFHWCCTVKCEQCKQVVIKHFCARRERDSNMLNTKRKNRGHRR
The experiment in a line: FRAP in living embryos; EGFP-Noggin4 bleached in a single intercellular space of the animal ectoderm that also holds TagRFP-Wnt8 (quasi-immobile); about 1 μM of each; Kd selected to fit the FRAP kinetics by a diffusion-adsorption model. Particulars: partners not purified.

Assay [1] deals with Myc-Noggin4 (Xenopus laevis). The experiment in a line: co-IP; quantitative co-immunoprecipitation (qCoIP): gradually decreasing concentrations of Flag-Wnt8 added to a standard amount of Myc-Noggin4 pre-mixed with anti-Myc resin; bound and unbound Flag-Wnt8 by quantitative Western blot against Flag-BAP standard. (In western blotting, separated proteins are transferred to a membrane and probed.)

Assay [2] deals with 3Myc-His6-Noggin4 (Xenopus laevis). The experiment in a line: SPR; Biacore T200; 3Myc-6His-Noggin4 immobilised on CM5 chip (1,500 RU) by amine coupling; 6His-Wnt8 injected; HBS-EP, 25 °C; equilibrium responses fitted to a 1:1 Langmuir model. On the technique in general: In SPR one partner is held on a chip, and binding of the other changes the refractive index at the surface.

Where only a bound is given, the exact number is not on record here.

B1: EGFP-Noggin4 (natural protein)
chain: MVHILVISWLMTLGTWGPTAICAPTNDLEPHNRTQKDMDIGSLRRQLSSGTRPYSLSLSPQDYHYSPKPKHLRVSRLLRLLGSSFDPFWMSVEQPADYSTSLLSTLSQDLYDGASRYRKKLAQEVQGLNFDSLQLPTELSANASQNIQNEIRQWLVQRASCQLTSTWVDLGTVFWPRWVRHTDCDGTNTACSWPPGMACRQAQFTQIKLLAWHCWMKDTGLGWATQQCTWRQVPYPVVAACKCTCR
modifications: No candidate is Noggin4 (P49011 is Noggin1). The paper reports two pseudoalleles and does not say which was used, so nog4.L is assumed. The Table S1 primers show the mature part starting at GQTNDL …
Turning to B1, the Kd (as a rule, the constant that tells how readily two partners part at equilibrium) with TagRFP-XWnt8 was not above 100 nM.

B2: Flag-Wnt8 (ligand)
chain: T1 sequence (looked up)
In the case of B2, in assay [1], the Kd is 10 nM.

B3: Xenopus laevis recombinant Wnt8 labeled by 6-Hys-tag at the N-terminus (ligand)
chain: T1 sequence (looked up)
Consider B3, for which, in assay [2], the Kd stood at 90 nM.

(Values after paper PMC4789793, “Noggin4 is a long-range inhibitor of Wnt8 signalling that regulates head development in Xenopus laevis” (Scientific Reports, 2016).)
